Assay: soluble on expression in E. coli; label from the status in PepcDB or PDB records

Row | Sequence | soluble on expression in E. coli
1 | MASMTGGNNMGRGSMGAMDQEIGTVTDTKMDPRDFLQLLKINAEKAEKNLPLDQKRAGMEALCERFPRAEGVELTLTDLGGVPCIRQATDGAGAAHILYFHGGGYISGSPSTHLVLTTQLAKQSSATLWSLDYRLAPENPFPAAVDDCVAAYRALLKTAGSADRIIIAGDSAGGGLTTASMLKAKEDGLPMPAGLVMLSPFVDLTLSRWSNSNLADRDFLAEPDTLGEMSELYVGGEDRKNPLISPVYADLSGLPEMLIHVGSEEALLSDSTTLAERAGAAGVSVELKIWPDMPHVFQMYGKFVNAADISIKEICHWISARISKLAAALEHHHHHH | soluble
2 | MASQVSQMPSSSPLSSNKDEMRPKADFQPSIWGDLFLNCPDKNIDAETEKRHQQLKEEVRKMIVAPMANSTQKLAFIDSVQRLGVSYHFTKEIEDELENIYHNNNDAENDLYTTSIRFRLLREHGYNVSCDVFNKFKDEQGNFKSSVTSDVRGLLELYQASYLRVHGEDILDEAISFTTHHLSLAVASLDHPLSEEVSHALKQSIRRGLPRVEARHYLSVYQDIESHNKALLEFAKIDFNMLQFLHRKELSEICRWWKDLDFQRKLPYARDRVVEGYFWISGVYFEPQYSLGRKMLTKVIAMASIVDDTYDSYATYEELIPYTNAIERWDIKCIDEIPEYMKPSYKALLDVYEEMVQLVAEHGRQYRVEYAKNAMIRLAQSYLVEAKWTLQNYKPSFEEFKANALPTCGYAMLAITSFVGMGDIVTPETFKWAASDPKIIQASTIICRFMDDVAEHKFKHRREDDCSAIECYMEEYGVTAQEAYDVFNKHVESAWKDLNQEFLKPTEMPTEVLNRSLNLARVMDVLYREGDGYTYVGKAAKGGITSLLIEPIAL | soluble
3 | MASRAPKEVPLCPLMTDGETRNVTDLPGPTNWPLLGSLLEIFWKGGLKKQHDTLAEYHKKYGQIFRMKLGSFDSVHLGSPSLLEALYRTESAHPQRLEIKPWKAYRDHRNEAYGLMILEGQEWQRVRSAFQKKLMKPVEIMKLDKKINEVLADFLERMDELCDERGRIPDLYSELNKWSFESICLVLYEKRFGLLQKETEEEALTFITAIKTMMSTFGKMMVTPVELHKRLNTKVWQAHTLAWDTIFKSVKPCIDNRLQRYSQQPGADFLCDIYQQDHLSKKELYAAVTELQLAAVETTANSLMWILYNLSRNPQAQRRLLQEVQSVLPDNQTPRAEDLRNMPYLKACLKESMRLTPSVPFTTRTLDKPTVLGEYALPKGTVLTLNTQVLGSSEDNFEDSHKFRPERWLQKEKKINPFAHLPFGIGKRMCIGRRLAELQLHLALCWIIQKYDIVATDNEPVEMLHLGILVPSRELPIAFRPR | soluble
4 | MASSINGRKPSEIFKAQALLYKHIYAFIDSMSLKWAVEMNIPNIIQNHGKPISLSNLVSILQVPSSKIGNVRRLMRYLAHNGFFEIITKEEESYALTVASELLVRGSDLCLAPMVECVLDPTLSGSYHELKKWIYEEDLTLFGVTLGSGFWDFLDKNPEYNTSFNDAMASDSKLINLALRDCDFVFDGLESIVDVGGGTGTTAKIICETFPKLKCIVFDRPQVVENLSGSNNLTYVGGDMFTSIPNADAVLLKYILHNWTDKDCLRILKKCKEAVTNDGKRGKVTIIDMVIDKKKDENQVTQIKLLMDVNMACLNGKERNEEEWKKLFIEAGFQHYKISPLTGFLSLIEIYP | soluble
5 | MASSINNRKPSEIFKAQALLYKNMYAFVDSMSLKWSIEMNIPNIIHNHGKPITLSNLVSILQIPSTKVDNVQRLMRYLAHNGFFEIITNQELENEEEAYALTVASELLVKGTELCLAPMVECVLDPTLSTSFHNLKKWVYEEDLTLFAVNLGCDLWEFLNKNPEYNTLYNDALASDSKMINLAMKDCNLVFEGLESIVDVGGGNGTTGKIICETFPKLTCVVFDRPKVVENLCGSNNLTYVGGDMFISVPKADAVLLKAVLHDWTDKDCIKILKKCKEAVTSDGKRGKVIVIDMVINEKKDENQLTQIKLLMNVTISCVNGKERNEEEWKKLFIEAGFQDYKISPFTGLMSLIEIYP | soluble
6 | MASSNLIKQLQERGLVAQVTDEEALAERLAQGPIALYCGFDPTADSLHLGHLVPLLCLKRFQQAGHKPVALVGGATGLIGDPSFKAAERKLNTEETVQEWVDKIRKQVAPFLDFDCGENSAIAANNYDWFGNMNVLTFLRDIGKHFSVNQMINKEAVKQRLNREDQGISFTEFSYNLLQGYDFACLNKQYGVVLQIGGSDQWGNITSGIDLTRRLHQNQVFGLTVPLITKADGTKFGKTEGGAVWLDPKKTSPYKFYQFWINTADADVYRFLKFFTFMSIEEINALEEEDKNSGKAPRAQYVLAEQVTRLVHGEEGLQAAKRITECLFSGSLSALSEADFEQLAQDGVPMVEMEKGADLMQALVDSELQPSRGQARKTIASNAITINGEKQSDPEYFFKEEDRLFGRFTLLRRGKKNYCLICWK | soluble
7 | MASSSLVRIAVVGDIHGFWNLDEDRKALRVLQERKTKTKRCSNATRYMDFPSFKLSIVGGRPFSHGGDRLFRKNLLVQRYGVHDMEASAGSICRAAHGTPEDHVAIILAHNGPTGLGWQAEDICGKDWGAEGGDHGDPDLEQAIRQLKETTKLSIPLVVFGHMHKELQRGKGNRKMVVQDSDNQTVYVNGAIVPRVKEAKKRGAAESESGGTTRAFTLVEILDGKIKKIAEIWVHVNGSMAKIVEENTLFEDVT | soluble
8 | MASSVDEEALHQLYLWVDNIPLSRPKRNLSRDFSDGVLVAEVIKFYFPKMVEMHNYVPANSLQQKLSNWGHLNRKVLKRLNFSVPDDVMRKIAQCAPGVVELVLIPLRQRLEERQRRRKQGAGSLQELAPQDGSGYMDVGKVAFSISPSRLELSFCPSSCHL | not soluble
9 | MASTPCAACKLLRRKCTQECVFAPYFPPTNPQKFIFVHRVFGASNVTKILNDLPPDQREDTVNSLFYEAEARIRDPIYGCVGLISFLQQYLKKIQQDLLTAKEELVGYLGPDAVIPPPYLPPIGNNPPPNFMMSMEGMPPGVIPQGEPLMIREPNMSQQHHHQQPQDEQLQFIASDAQRMAAMMLERGDQQGMFNGYGIDNNGSVTATGFNQMDVNDQGAGGSLSGPSLALGSFGDAYQMGQETEHGHINHDQLQTQLMLQPPLQEGQEQTEEGQFLMQPMGQENLHDEEEEEELEPPVKWRMSENKEASF | not soluble
10 | MASVPVYCLCRLPYDVTRFMIECDMCQDWFHGSCVGVEEEKAADIDLYHCPNCEVLHGPSIMKKRRGSSKGHDTHKGKPVKTGSPTFVRELRSRTFDSSDEVILKPTGNQLTVEFLEENSFSVPILVLKKDGLGMTLPSPSFTVRDVEHYVGSDKEIDVIDVTRQADCKMKLGDFVKYYYSGKREKVLNVISLEFSDTRLSNLVETPKIVRKLSWVENLWPEECVFERPNVQKYCLMSVRDSYTDFHIDFGGTSVWYHVLKGEKIFYLIRPTNANLTLFECWSSSSNQNEMFFGDQVDKCYKCSVKQGQTLFIPTGWIHAVLTPVDCLAFGGNFLHSLNIEMQLKAYEIEKRLSTADLFRFPNFETICWYVGKHILDIFRGLRENRRHPASYLVHGGKALNLAFRAWTRKEALPDHEDEIPETVRTVQLIKDLAREIRLVEDIFQQN | soluble
11 | MASYTSEQAEALLKLQFDKYAKFIDDEVWAEVEGYYHPSGVLVHKGKEAVYGNKDKSTYIAKFAEGTGKSVGTTTNAKYEGSGDYLIITADFSSETEKAGTVKGRFVQI | not soluble
12 | MATAKKITIHDVALAAGVSVSTVSLVLSGKGRISTATGERVNAAIEELGFVRNRQASALRGGQSGVIGLIVRDLSAPFYAELTAGLTEALEAQGRMVFLLHGGKDGEQLAQRFSLLLNQGVDGVVIAGAAGSSDDLRRMAEEKAIPVIFASRASYLDDVDTVRPDNMQAAQLLTEHLIRNGHQRIAWLGGQSSSLTRAERVGGYCATLLKFGLPFHSDWVLECTSSQKQAAEAITALLRHNPTISAVVCYNETIAMGAWFGLLKAGRQSGESGVDRYFEQQVSLAAFTDATPTTLDDIPVTWASTPARELGITLADRMMQKITHEETHSRNLIIPARLIAAK | not soluble
13 | MATAVKLSGISKTFGSLKANDNVSLSIEAGSIHALVGENGAGKSTLSNIIYGLLHPDSGTIEIDGKAVKFSSVRQAIEAGIGMVHQHFMLVPTLSVTENIILGKEESRLALPTRRIGKEIRQLSQQHGLEVDPDALVSTLSVGEQQRVEILKLLYRRAKLLILDEPTAVLSPPETARLFATLRSLAAEGRTVLLITHKLDEVLTVSDSVSVMRKGSLVGTVPTTSTSKEDLARMMVGRDVLLRTANAPQTPGKTVLSIDKLTYRSPLGIDKLTGLTLHVRAGEIYGIAGVEGNGQSELLSLLWGTFDRSGKTGGSITIDAQETLGKNPSEIAALGVSMIPEDRHKSAIIAEYGIEENLILGRHREKAFHRGIGFDRDAVHKNATAMIEQYDIRCAAGTNPPIASLSGGNQQKIVVAREMERPQLKLLVLAQPTRGVDIGAIEQIHKRIIDARKSGLAILLISSELEEIVALSTRIGCLYKGAIRHEFSETEVWRGRDHESGFEKEIGMHITLEHHHHHH | soluble
14 | MATEPPKIVWNEGKRRFETEDHEAFIEYKMRNNGKVMDLVHTYVPSFKRGLGLASHLCVAAFEHASSHSISIIPSCSYVSDTFLPRNPSWKPLIHSEVFKSSI | soluble
15 | MATGVIRGAELSPSYIIEEILGLYQNIVVLSNEEIVYGLSDRNRELFQELEYLVSLEVEDSVVQDILQKKELEPAFTEIKRFRNLYTVRLETEHAKEILSSDSPWASLEMFSFYGNYLKLVRTEYEGLRLSSGDTVFFLGSGPLPLTLIVFFRLYGVKSTGIEKDSFRANLSKKVLEKLGLSSVIKIVNGNHFSLSRKDLSLSPDTGVKALMIAAQAEPKKEIFEHLLEVMPIGGRISCRIYEKGLRKLLSGNCLFDLPEGFVEQERVQPQPPVYNTVIFFEKKRLEHHHHHH | not soluble
16 | MATLTAKNLAKAYKGRRVVEDVSLTVNSGEIVGLLGPNGAGKTTTFYMVVGIVPRDAGNIIIDDDDISLLPLHARARRGIGYLPQEASIFRRLSVYDNLMAVLQIRDDLSAEQREDRANELMEEFHIEHLRDSMGQSLSGGERRRVEIARALAANPKFILLDEPFAGVDPISVIDIKRIIEHLRDSGLGVLITDHNVRETLAVCERAYIVSQGHLIAHGTPTEILQDEHVKRVYLGEDFRL | soluble
17 | MATRADEDGDTPLHIAVVQGNLPAVHRLVNLFQQGGRELDIYNNLRQTPLHLAVITTLPSVVRLLVTAGASPMALDRHGQTAAHLACEHRSPTCLRALLDSAAPGTLDLEARNYDGLTALHVAVNTECQETVQLLLERGADIDAVDIKSGRSPLIHAVENNSLSMVQLLLQHGANVNAQMYSGSSALHSASGRGLLPLVRTLVRSGADSSLKNCHNDTPLMVARSRRVIDILRGKATRPAS | soluble
18 | MATRRRIGVAAIQKKQETANKFAAKGDQMAGEQLVQFSQQLEQLSAGLEMFAQRHRDEIKKNSQFRRHFQEMCASVGVDPLASSKGFWAKALGFGDFYYELGIQIVEICLSTTHINGGIMTVEEIRNRLMRTRSRTRKDTISTDDILRAVDKLKVLGNGFELVPLGGGRFLVQSVPGELSMDHSRVLQLAEDAAYVTKELIIDKLRWDEARASSALEHLVKEGLAWTDEQASDTTQYWFPSLFLQQYCHSSSSTSVSESLHSMSFNNYQ | not soluble
19 | MATRSCVSRGSAGSAAAGPVEAAIRAKLEQALSPEVLELRNESGGHAVPAGSETHFRVAVVSSRFEGMSPLQRHRLVHEALSEELAGPVHALAIQAKTPAQWRENPQLDISPPCLG | soluble
20 | MATSGFKHLVVVKFKEDTKVDEILKGLENLVSQIDTVKSFEWGEDKESHDMLRQGFTHAFSMTFENKDGYVAFTSHPLHVEFSAAFTAVIDKIVLLDFPVAAVKSSVVATP | soluble

— the DeepSol protein solubility set
